Numbering of substitutions follows the chain as printed. Names and notes keep the numbering of the source.
B1: Fos (leucine zipper region), negative control prey with Krev1 (other, UniProt P01100 132-211, looked up, not shown: large carriers)
chain: LSPEEEEKRRIRRERNKMAAAKCRNRRRELTDTLQAETDQLEDEKSALQTEIANLLKEKEKLEFILAAHRPACKIPDDLG
notes: domain: leucine zipper region; the only Fos ORF it describes is the leucine zipper region
B2: RalGDS ras association (RA) domain expressed from pEXP22/RalGDS as GAL4 AD fusion (other, UniProt Q03386 767-864, looked up, not shown: large carriers)
chain: SSSLPLYNQQVGDCCIIRVSLDVDNGNMYKSILVTSQDKAPTVIRKAMDKHNLDEDEPEDYELLQIISEDHKLKIPENANVFYAMNSAANYDFILKKR
notes: domain: ras association domain; Prey; also called RalGDS wild type
B3: RalGDS RA allele 16, R20M (other, not shown: small tags and cut ends)
chain: YNQQVGDCCIIMVSLDVDNGNMYKSILVTSQDKAPTVIRKAMDKHNLDEDEPEDYELLQIISEDHKLKIPENANVFYAMNSAANYDFILKKR
B4: RalGDS RA allele 22, Q67R (other, not shown: small tags and cut ends)
chain: B3 chain with M12R, Q59R
B5: RalGDS RA alleles 17 and 19, Y31C (other, not shown: small tags and cut ends)
chain: B3 chain with M12R, Y23C
notes: also called clone 17; clone 19
B6: RalGDS RA allele 23, M50V (other, not shown: small tags and cut ends)
chain: B3 chain with M12R, M42V
B7: RalGDS RA alleles 6 and 15, K52E (other, not shown: small tags and cut ends)
chain: B3 chain with M12R, K44E
notes: also called clone 6 (RalGDS screen); clone 15
B8: RalGDS RA alleles 3, 8, 27, 30, 35 and 36, L65P (other, not shown: small tags and cut ends)
chain: B3 chain with M12R, L57P
notes: Six clones with the same amino acid change; also called clone 3; clone 8
B9: RalGDS RA allele 2, L66P (other, not shown: small tags and cut ends)
chain: B3 chain with M12R, L58P
notes: also called clone 2
B10: RalGDS RA allele 4, I77T (other, not shown: small tags and cut ends)
chain: B3 chain with M12R, I69T

What was measured:
[1] = biological target: T1, Krev1 (full-length ORF) expressed from pEXP32/Krev1 as GAL4 DBD fusion (rat, UniProt P04386 1-147; P62836 1-184); test: yeast two-hybrid negative control, HIS3/3-AT reporter
T1 construct: Bait; also called Rap1A
Protocol: Yeast transformations were performed according to MaV203 competent yeast cell protocol (Invitrogen, Carlsbad, Calif.) using Gateway destination vectors pDEST32 and pDEST 22 (Invitrogen.com). Briefly, 25 μl cells are mixed with 1 μg bait construct (pEXP32-Bait ORF) and 1 μg prey allele library (EXP22-Prey allele library). pEXP32 is an expression construct in which a partner sequence (“bait”) is fused to the GAL4 DBD. pEXP22 is an expression construct in which a target sequence (“prey”) is fused to the GAL4 AD. Next, 180 μl LiAc/PEG solution is added and tube is inverted several times to mix. Incubate at 30° C. for 30 min, add 10 μl DMSO and heat shock at 42° C. for 10 min. Spin down cells at 1800 rpm, resuspend in 1 ml dH2O, serial dilute to 10⁻². Plate 100 μl of dilutions 10⁻¹ and 10⁻² on CSM-LW, and 100 μl undiluted and dilution 10⁻¹ on CSM-LW+5-FOA. Incubate plates at 30° C. for 3-5 five days. Patch colonies from CSM-LW+5-FOA onto CSM-LW (along with positive and negative control patches) and incubate at 30° C. for 2 days. Replica plate onto CSM-LW and CSM-LWH+3-AT (10 mM, 25 mM, 50 mM and 100 mM). […]
In creating the allele library for RalGDS, it was calculated using the guidelines in Materials and Methods that 200,000 individual Kan⁺ clones was sufficient to provide good library representation for the 296 bp ORF. […]

[2] = biological target: T1, Krev1 (full-length ORF) expressed from …; test: yeast two-hybrid (ProQuest)
[3] = biological target: T1, Krev1 (full-length ORF) expressed from …; test: cell-based or functional assay
[4] = biological target: T1, Krev1 (full-length ORF) expressed from …; test: yeast two-hybrid; no growth under histidine selection with 10 mM 3-AT, no URA3 activation
Protocol: To confirm the initial mutant phenotypes, plasmid DNA from the 17 mutant alleles and 6 wild type clones was co-transformed into MaV203 with pEXP32-Krev1. Transformants were tested for their ability to activate the URA3 reporter, as well as the HIS3 reporter in the presence of 10 mM, 25 mM, 50 mM or 100 mM 3-AT. All six wild type clones (7, 9, 11, 12, 20 and 21) produced strong URA⁺ and HIS3/100 mM 3-AT⁺ phenotypes, except clone 20. […] Clone 4 (I77T) and 23 (M50V) were the only mutants displaying a strong growth phenotype in the presence of 100 mM 3-AT.

Row | Binder | binding result [1] | binding result [2] | 3-AT Phenotype (concentration of 3-AT required to inhibit growth under histidine selection, HIS3 reporter) [3] [mM] | binding result [4]
1 | B1 | no binding |  |  | 
2 | B2 |  | binds |  | 
3 | B3 |  |  | 50 | 
4 | B4 |  |  | 100 | 
5 | B5 |  |  | 10 | no binding
6 | B6 |  |  | > 100 | 
7 | B7 |  |  | 10 | no binding
8 | B8 |  |  | 10 | no binding
9 | B9 |  |  | 10 | no binding
10 | B10 |  |  | > 100 | 

Reference: patent US20060204979A1 (INVITROGEN, published 2006)
